Laboratory results as given in patent US20240279318A1 (NANJING LEGEND BIOTECH, published 2024).

What was measured:
[1] = target: T1, AFP158/HLA-A*02:01 complex (human); experiment: SPR, scFv captured, pMHC in flow;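 further: complex injected at several concentrations over crude scFv, association then running-buffer dissociation, KD estimated from kinetic on- and off-rate constants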
T1 construct: flowed over the chip in SPR; also called AFP158 pro
Method: (§1) The experiment was carried out as follows. The crude scFv protein were captured onto the sensorchip. Different concentrations (320, 160, 40 nM) of AFP158/HLA-A*02:01 complex flowed over the sensorchip surface, and were allowed to bind the antibody fragment for 100 s followed by injection of the running buffer to allow dissociation of the complex. On-rate (kd) and off-rate (kd) were calculated based on association and dissociation curve, and were used to estimate the equilibrium dissociation constant (KD).

[2] = target: T1, AFP158/HLA-A*02:01 complex; experiment: SPR, KD ratio to AS170036 VL1VH1;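 further: crude scFv captured on a sensor chip, peptide–HLA complex passed over at several concentrations, association then buffer dissociation, KD derived from on- and off-rates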
Method: as §1

| Binder | Kd [1] [nM] | Affinity increase [2] [fold] |
| --- | --- | --- |
| HG108A (scFv, AS170036 VL1VH1 scFv mutein; also called AS170036 VL1VH1-VHG108A) scFv: QSALTQPRSVSGSPGQSVTISCAGTSSDVGSENYVSWYQQHPGKAPKLMIYQVNKRASGVPDRFSGSKSGNTASLTISGLQAEDEADYYCASYRSSDHNIVFGGGTKLTVLGGGGSGGGGSGGGGSEVQLVESGGGLVQPGGSLRLSCAASGFTFSSYAMSWVRQAPGKGLEWVSTINSGTGSPYYADSVKGRFTISRDNSKNTLYLQMNSLRAEDTAVYYCAKNFFDGSWFLAPPAMDYWGQGTLVTVSSHHHHHH | 42 | 5.5 |
| HG108D (scFv, AS170036 VL1VH1 scFv mutein; also called AS170036 VL1VH1-VHG108D) scFv: QSALTQPRSVSGSPGQSVTISCAGTSSDVGSENYVSWYQQHPGKAPKLMIYQVNKRASGVPDRFSGSKSGNTASLTISGLQAEDEADYYCASYRSSDHNIVFGGGTKLTVLGGGGSGGGGSGGGGSEVQLVESGGGLVQPGGSLRLSCAASGFTFSSYAMSWVRQAPGKGLEWVSTINSGTGSPYYADSVKGRFTISRDNSKNTLYLQMNSLRAEDTAVYYCAKNFFDGSWFLDPPAMDYWGQGTLVTVSSHHHHHH | 42 | 5.5 |
| HG108E (scFv, AS170036 VL1VH1 scFv mutein; also called AS170036 VL1VH1-VHG108E) scFv: QSALTQPRSVSGSPGQSVTISCAGTSSDVGSENYVSWYQQHPGKAPKLMIYQVNKRASGVPDRFSGSKSGNTASLTISGLQAEDEADYYCASYRSSDHNIVFGGGTKLTVLGGGGSGGGGSGGGGSEVQLVESGGGLVQPGGSLRLSCAASGFTFSSYAMSWVRQAPGKGLEWVSTINSGTGSPYYADSVKGRFTISRDNSKNTLYLQMNSLRAEDTAVYYCAKNFFDGSWFLEPPAMDYWGQGTLVTVSSHHHHHH | 56 | 4.1 |
| HG108M (scFv, AS170036 VL1VH1 scFv mutein; also called AS170036 VL1VH1-VHG108M) scFv: QSALTQPRSVSGSPGQSVTISCAGTSSDVGSENYVSWYQQHPGKAPKLMIYQVNKRASGVPDRFSGSKSGNTASLTISGLQAEDEADYYCASYRSSDHNIVFGGGTKLTVLGGGGSGGGGSGGGGSEVQLVESGGGLVQPGGSLRLSCAASGFTFSSYAMSWVRQAPGKGLEWVSTINSGTGSPYYADSVKGRFTISRDNSKNTLYLQMNSLRAEDTAVYYCAKNFFDGSWFLMPPAMDYWGQGTLVTVSSHHHHHH | 58 | 4.7 |
| HG108Q (scFv, AS170036 VL1VH1 scFv mutein) scFv: QSALTQPRSVSGSPGQSVTISCAGTSSDVGSENYVSWYQQHPGKAPKLMIYQVNKRASGVPDRFSGSKSGNTASLTISGLQAEDEADYYCASYRSSDHNIVFGGGTKLTVLGGGGSGGGGSGGGGSEVQLVESGGGLVQPGGSLRLSCAASGFTFSSYAMSWVRQAPGKGLEWVSTINSGTGSPYYADSVKGRFTISRDNSKNTLYLQMNSLRAEDTAVYYCAKNFFDGSWFLQPPAMDYWGQGTLVTVSSHHHHHH | 200 | 1.4 |
| HL107M (scFv, AS170036 VL1VH1 scFv mutein) scFv: QSALTQPRSVSGSPGQSVTISCAGTSSDVGSENYVSWYQQHPGKAPKLMIYQVNKRASGVPDRFSGSKSGNTASLTISGLQAEDEADYYCASYRSSDHNIVFGGGTKLTVLGGGGSGGGGSGGGGSEVQLVESGGGLVQPGGSLRLSCAASGFTFSSYAMSWVRQAPGKGLEWVSTINSGTGSPYYADSVKGRFTISRDNSKNTLYLQMNSLRAEDTAVYYCAKNFFDGSWFMGPPAMDYWGQGTLVTVSSHHHHHH | 370 | 0.7 |
| HP58E (scFv, AS170036 VL1VH1 scFv mutein) scFv: QSALTQPRSVSGSPGQSVTISCAGTSSDVGSENYVSWYQQHPGKAPKLMIYQVNKRASGVPDRFSGSKSGNTASLTISGLQAEDEADYYCASYRSSDHNIVFGGGTKLTVLGGGGSGGGGSGGGGSEVQLVESGGGLVQPGGSLRLSCAASGFTFSSYAMSWVRQAPGKGLEWVSTINSGTGSEYYADSVKGRFTISRDNSKNTLYLQMNSLRAEDTAVYYCAKNFFDGSWFLGPPAMDYWGQGTLVTVSSHHHHHH | 600 | 0.5 |
| HP58G (scFv, AS170036 VL1VH1 scFv mutein) scFv: QSALTQPRSVSGSPGQSVTISCAGTSSDVGSENYVSWYQQHPGKAPKLMIYQVNKRASGVPDRFSGSKSGNTASLTISGLQAEDEADYYCASYRSSDHNIVFGGGTKLTVLGGGGSGGGGSGGGGSEVQLVESGGGLVQPGGSLRLSCAASGFTFSSYAMSWVRQAPGKGLEWVSTINSGTGSGYYADSVKGRFTISRDNSKNTLYLQMNSLRAEDTAVYYCAKNFFDGSWFLGPPAMDYWGQGTLVTVSSHHHHHH | 320 | 0.9 |
| HP110A (scFv, AS170036 VL1VH1 scFv mutein) scFv: QSALTQPRSVSGSPGQSVTISCAGTSSDVGSENYVSWYQQHPGKAPKLMIYQVNKRASGVPDRFSGSKSGNTASLTISGLQAEDEADYYCASYRSSDHNIVFGGGTKLTVLGGGGSGGGGSGGGGSEVQLVESGGGLVQPGGSLRLSCAASGFTFSSYAMSWVRQAPGKGLEWVSTINSGTGSPYYADSVKGRFTISRDNSKNTLYLQMNSLRAEDTAVYYCAKNFFDGSWFLGPAAMDYWGQGTLVTVSSHHHHHH | 210 | 1.3 |
| HP110D (scFv, AS170036 VL1VH1 scFv mutein) scFv: QSALTQPRSVSGSPGQSVTISCAGTSSDVGSENYVSWYQQHPGKAPKLMIYQVNKRASGVPDRFSGSKSGNTASLTISGLQAEDEADYYCASYRSSDHNIVFGGGTKLTVLGGGGSGGGGSGGGGSEVQLVESGGGLVQPGGSLRLSCAASGFTFSSYAMSWVRQAPGKGLEWVSTINSGTGSPYYADSVKGRFTISRDNSKNTLYLQMNSLRAEDTAVYYCAKNFFDGSWFLGPDAMDYWGQGTLVTVSSHHHHHH | 540 | 0.5 |

Continued by falling Kd [1], values first:

| Kd [1] [nM] | Affinity increase [2] [fold] | Binder |
| --- | --- | --- |
| 530 | 0.5 | HG108T (scFv, AS170036 VL1VH1 scFv mutein) scFv: QSALTQPRSVSGSPGQSVTISCAGTSSDVGSENYVSWYQQHPGKAPKLMIYQVNKRASGVPDRFSGSKSGNTASLTISGLQAEDEADYYCASYRSSDHNIVFGGGTKLTVLGGGGSGGGGSGGGGSEVQLVESGGGLVQPGGSLRLSCAASGFTFSSYAMSWVRQAPGKGLEWVSTINSGTGSPYYADSVKGRFTISRDNSKNTLYLQMNSLRAEDTAVYYCAKNFFDGSWFLTPPAMDYWGQGTLVTVSSHHHHHH |
| 530 | 0.5 | HL107N (scFv, AS170036 VL1VH1 scFv mutein) scFv: QSALTQPRSVSGSPGQSVTISCAGTSSDVGSENYVSWYQQHPGKAPKLMIYQVNKRASGVPDRFSGSKSGNTASLTISGLQAEDEADYYCASYRSSDHNIVFGGGTKLTVLGGGGSGGGGSGGGGSEVQLVESGGGLVQPGGSLRLSCAASGFTFSSYAMSWVRQAPGKGLEWVSTINSGTGSPYYADSVKGRFTISRDNSKNTLYLQMNSLRAEDTAVYYCAKNFFDGSWFNGPPAMDYWGQGTLVTVSSHHHHHH |
| 500 | 0.5 | HP58Q (scFv, AS170036 VL1VH1 scFv mutein) scFv: QSALTQPRSVSGSPGQSVTISCAGTSSDVGSENYVSWYQQHPGKAPKLMIYQVNKRASGVPDRFSGSKSGNTASLTISGLQAEDEADYYCASYRSSDHNIVFGGGTKLTVLGGGGSGGGGSGGGGSEVQLVESGGGLVQPGGSLRLSCAASGFTFSSYAMSWVRQAPGKGLEWVSTINSGTGSQYYADSVKGRFTISRDNSKNTLYLQMNSLRAEDTAVYYCAKNFFDGSWFLGPPAMDYWGQGTLVTVSSHHHHHH |
| 380 | 0.7 | HP58A (scFv, AS170036 VL1VH1 scFv mutein) scFv: QSALTQPRSVSGSPGQSVTISCAGTSSDVGSENYVSWYQQHPGKAPKLMIYQVNKRASGVPDRFSGSKSGNTASLTISGLQAEDEADYYCASYRSSDHNIVFGGGTKLTVLGGGGSGGGGSGGGGSEVQLVESGGGLVQPGGSLRLSCAASGFTFSSYAMSWVRQAPGKGLEWVSTINSGTGSAYYADSVKGRFTISRDNSKNTLYLQMNSLRAEDTAVYYCAKNFFDGSWFLGPPAMDYWGQGTLVTVSSHHHHHH |
| 370 | 0.7 | HG108V (scFv, AS170036 VL1VH1 scFv mutein) scFv: QSALTQPRSVSGSPGQSVTISCAGTSSDVGSENYVSWYQQHPGKAPKLMIYQVNKRASGVPDRFSGSKSGNTASLTISGLQAEDEADYYCASYRSSDHNIVFGGGTKLTVLGGGGSGGGGSGGGGSEVQLVESGGGLVQPGGSLRLSCAASGFTFSSYAMSWVRQAPGKGLEWVSTINSGTGSPYYADSVKGRFTISRDNSKNTLYLQMNSLRAEDTAVYYCAKNFFDGSWFLVPPAMDYWGQGTLVTVSSHHHHHH |
| 240 | 1.1 | HL107I (scFv, AS170036 VL1VH1 scFv mutein) scFv: QSALTQPRSVSGSPGQSVTISCAGTSSDVGSENYVSWYQQHPGKAPKLMIYQVNKRASGVPDRFSGSKSGNTASLTISGLQAEDEADYYCASYRSSDHNIVFGGGTKLTVLGGGGSGGGGSGGGGSEVQLVESGGGLVQPGGSLRLSCAASGFTFSSYAMSWVRQAPGKGLEWVSTINSGTGSPYYADSVKGRFTISRDNSKNTLYLQMNSLRAEDTAVYYCAKNFFDGSWFIGPPAMDYWGQGTLVTVSSHHHHHH |
| 200 | 1.4 | HG108L (scFv, AS170036 VL1VH1 scFv mutein) scFv: QSALTQPRSVSGSPGQSVTISCAGTSSDVGSENYVSWYQQHPGKAPKLMIYQVNKRASGVPDRFSGSKSGNTASLTISGLQAEDEADYYCASYRSSDHNIVFGGGTKLTVLGGGGSGGGGSGGGGSEVQLVESGGGLVQPGGSLRLSCAASGFTFSSYAMSWVRQAPGKGLEWVSTINSGTGSPYYADSVKGRFTISRDNSKNTLYLQMNSLRAEDTAVYYCAKNFFDGSWFLLPPAMDYWGQGTLVTVSSHHHHHH |
| 140 | 2 | HG108N (scFv, AS170036 VL1VH1 scFv mutein; also called AS170036 VL1VH1-VHG108N) scFv: QSALTQPRSVSGSPGQSVTISCAGTSSDVGSENYVSWYQQHPGKAPKLMIYQVNKRASGVPDRFSGSKSGNTASLTISGLQAEDEADYYCASYRSSDHNIVFGGGTKLTVLGGGGSGGGGSGGGGSEVQLVESGGGLVQPGGSLRLSCAASGFTFSSYAMSWVRQAPGKGLEWVSTINSGTGSPYYADSVKGRFTISRDNSKNTLYLQMNSLRAEDTAVYYCAKNFFDGSWFLNPPAMDYWGQGTLVTVSSHHHHHH |
| 96 | 2.8 | HG108S (scFv, AS170036 VL1VH1 scFv mutein; also called AS170036 VL1VH1-VHG108S) scFv: QSALTQPRSVSGSPGQSVTISCAGTSSDVGSENYVSWYQQHPGKAPKLMIYQVNKRASGVPDRFSGSKSGNTASLTISGLQAEDEADYYCASYRSSDHNIVFGGGTKLTVLGGGGSGGGGSGGGGSEVQLVESGGGLVQPGGSLRLSCAASGFTFSSYAMSWVRQAPGKGLEWVSTINSGTGSPYYADSVKGRFTISRDNSKNTLYLQMNSLRAEDTAVYYCAKNFFDGSWFLSPPAMDYWGQGTLVTVSSHHHHHH |
